The results in this text go back to patent publication US7098310B1, “Heterodimers of retinoid X receptors (RXRS) and other steroid hormone receptors” (Ligand Pharmaceuticals, priority 1991, dated 2006).

Test [1] addresses T1, retinoid x receptor (RXRα) (human, UniProt P19793 1-462).
T1 construct: mature; In vitro translated full length receptor; 35S-labelled in the column and immunoprecipitation experiments
T1 sequence (looked up): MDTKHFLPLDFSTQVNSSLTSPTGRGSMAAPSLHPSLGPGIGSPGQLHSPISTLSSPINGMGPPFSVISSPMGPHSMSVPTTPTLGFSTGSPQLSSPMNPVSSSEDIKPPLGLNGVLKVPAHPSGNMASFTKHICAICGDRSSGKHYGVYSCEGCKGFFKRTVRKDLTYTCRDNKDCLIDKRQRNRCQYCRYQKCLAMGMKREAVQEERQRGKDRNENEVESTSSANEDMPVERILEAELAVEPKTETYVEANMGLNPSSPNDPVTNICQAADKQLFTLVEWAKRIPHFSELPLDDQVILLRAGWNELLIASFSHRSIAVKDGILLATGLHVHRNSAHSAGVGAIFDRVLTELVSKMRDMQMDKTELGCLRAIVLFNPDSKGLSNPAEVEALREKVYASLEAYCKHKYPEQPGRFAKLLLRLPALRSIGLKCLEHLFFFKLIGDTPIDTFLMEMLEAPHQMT
The test is described as follows: gel retardation, 32P palindromic TRE, in vitro translated receptors. As to the method:
(§1) After incubation at room temperature for 45 minutes, the effect of antibody on slow migrating complexes was analyzed by gel retardation using ^32-labelled palindromic TRE as a probe. As a control, receptor mixtures were also incubated with preimmune serum (NI).
(§2) In vitro translated receptor protein (1 to 5 µl depending on the translation efficiency) was incubated with the ^32P-labeled oligonucleotides in a 20-µl reaction mixture containing 10 mM hepes buffer, pH 7.9, 50 mM KCl, 1 mM DTT, 2.5 mM MgCl, 10% glycerol, and 1 µg of poly(dI-dC) at 25° C. for 20 minutes. In general, relative low receptor concentration was used to obtain the clear effect of heterodimer formation. The reaction mixture was then loaded on a 5% nondenaturing polyacrylamide gel containing 0.5× TBE (1×TBE=0.089 M TRIS-borate, 0.089 M boric acid, and 0.002 M EDTA). […] When antibody was used, 1 µl of the antiserum was incubated with the specific translation products at room temperature for 45 minutes before performing the experiments described above.

The target of test [2] is T2, thyroid hormone receptor TRβ (human, UniProt P10828 1-461).
T2 construct: mature; In vitro translated; also called TR-B; c-erb-A-B
T2 sequence (looked up): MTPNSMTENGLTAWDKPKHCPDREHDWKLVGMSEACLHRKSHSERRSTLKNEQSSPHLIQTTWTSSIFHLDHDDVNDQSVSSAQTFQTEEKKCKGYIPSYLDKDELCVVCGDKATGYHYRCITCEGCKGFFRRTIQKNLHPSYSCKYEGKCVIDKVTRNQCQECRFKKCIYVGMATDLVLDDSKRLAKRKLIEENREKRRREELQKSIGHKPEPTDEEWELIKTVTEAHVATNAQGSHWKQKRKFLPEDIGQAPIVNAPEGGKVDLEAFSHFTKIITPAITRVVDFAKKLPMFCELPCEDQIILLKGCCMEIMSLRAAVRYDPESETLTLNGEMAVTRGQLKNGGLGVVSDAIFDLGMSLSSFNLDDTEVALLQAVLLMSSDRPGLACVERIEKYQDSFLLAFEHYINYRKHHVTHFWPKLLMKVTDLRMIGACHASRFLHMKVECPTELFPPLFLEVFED
Briefly: gel retardation, 32P palindromic TRE (data not shown).

Test [3] concerns the target T3, retinoic acid receptor RARγ (UniProt P13631 1-454, limits assumed).
T3 construct: mature; In vitro translated
T3 sequence (looked up): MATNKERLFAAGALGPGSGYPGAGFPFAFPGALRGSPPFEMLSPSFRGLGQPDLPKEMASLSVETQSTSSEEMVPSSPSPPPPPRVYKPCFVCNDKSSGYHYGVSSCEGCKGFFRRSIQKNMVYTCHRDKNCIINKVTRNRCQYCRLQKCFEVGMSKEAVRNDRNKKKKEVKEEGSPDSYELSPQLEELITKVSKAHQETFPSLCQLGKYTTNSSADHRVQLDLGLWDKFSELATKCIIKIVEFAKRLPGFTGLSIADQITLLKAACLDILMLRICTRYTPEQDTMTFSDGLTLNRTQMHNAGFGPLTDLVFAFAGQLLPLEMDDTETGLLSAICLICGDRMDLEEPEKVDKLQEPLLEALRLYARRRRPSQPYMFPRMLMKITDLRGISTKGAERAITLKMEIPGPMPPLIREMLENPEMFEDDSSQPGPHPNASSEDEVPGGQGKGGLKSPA
The test is described as follows: gel retardation, 32P palindromic TRE, in vitro translated receptors. As to the method: as §1, §2

Test [4] has as its target T4, retinoic acid receptor RARβ (UniProt P10826 1-455, limits assumed).
T4 construct: mature; In vitro translated
T4 sequence (looked up): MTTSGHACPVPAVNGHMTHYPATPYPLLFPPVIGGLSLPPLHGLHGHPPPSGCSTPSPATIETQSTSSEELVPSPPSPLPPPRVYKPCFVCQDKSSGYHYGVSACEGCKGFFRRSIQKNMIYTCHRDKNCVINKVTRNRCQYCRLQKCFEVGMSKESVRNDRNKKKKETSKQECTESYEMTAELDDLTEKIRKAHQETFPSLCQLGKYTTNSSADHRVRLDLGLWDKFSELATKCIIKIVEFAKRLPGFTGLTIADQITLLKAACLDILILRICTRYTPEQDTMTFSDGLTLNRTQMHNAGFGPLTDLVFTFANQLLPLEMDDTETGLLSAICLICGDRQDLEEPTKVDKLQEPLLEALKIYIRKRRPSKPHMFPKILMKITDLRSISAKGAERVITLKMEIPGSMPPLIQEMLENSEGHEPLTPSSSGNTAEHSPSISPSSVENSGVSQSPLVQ
Briefly: gel retardation, 32P palindromic TRE (data not shown).

For test [5], the target named is T5, retinoic acid receptor RARα (UniProt P10276 1-462, limits assumed).
T5 construct: mature; In vitro translated
T5 sequence (looked up): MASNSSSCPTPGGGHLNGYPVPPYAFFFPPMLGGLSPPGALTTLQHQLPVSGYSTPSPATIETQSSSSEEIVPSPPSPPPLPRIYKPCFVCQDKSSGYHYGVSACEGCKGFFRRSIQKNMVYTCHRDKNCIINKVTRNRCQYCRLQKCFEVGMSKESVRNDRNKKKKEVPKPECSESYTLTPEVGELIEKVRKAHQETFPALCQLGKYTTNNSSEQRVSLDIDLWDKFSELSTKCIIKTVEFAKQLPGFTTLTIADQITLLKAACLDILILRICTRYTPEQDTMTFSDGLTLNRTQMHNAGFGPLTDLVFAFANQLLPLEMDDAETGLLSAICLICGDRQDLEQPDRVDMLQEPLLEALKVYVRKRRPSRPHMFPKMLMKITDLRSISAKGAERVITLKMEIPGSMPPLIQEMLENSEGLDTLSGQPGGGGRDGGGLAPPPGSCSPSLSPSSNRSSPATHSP
The description is as above.

B1: TRαm2 (receptor, UniProt P63059-2 1-213, looked up)
chain: MEQKPSKVECGSDPEENSARSPDGKRKRKNGQCPLKSSMSGYIPSYLDKDEQCVVCGDKATGYHYRCITCEGCKGFFRRTIQKNLHPTYSCKYDSCCVIDKITRNQCQLCRFKKCIAVGMAMDLVLDDSKRVAKRKLIEQNRERRRKEEMIRSLQQRPEPTPEEWDLIHVATEAHRSTNAQGSHWKQRRKFLPDDIGQSPIVSMPDGDKVDLE
notes: In vitro translated deletion mutant
In the case of B1, the binding result in test [1] is recorded as “no binding”.

B2: RXRαm3 (receptor, human, UniProt P19793 28-462, looked up)
chain: MAAPSLHPSLGPGIGSPGQLHSPISTLSSPINGMGPPFSVISSPMGPHSMSVPTTPTLGFSTGSPQLSSPMNPVSSSEDIKPPLGLNGVLKVPAHPSGNMASFTKHICAICGDRSSGKHYGVYSCEGCKGFFKRTVRKDLTYTCRDNKDCLIDKRQRNRCQYCRYQKCLAMGMKREAVQEERQRGKDRNENEVESTSSANEDMPVERILEAELAVEPKTETYVEANMGLNPSSPNDPVTNICQAADKQLFTLVEWAKRIPHFSELPLDDQVILLRAGWNELLIASFSHRSIAVKDGILLATGLHVHRNSAHSAGVGAIFDRVLTELVSKMRDMQMDKTELGCLRAIVLFNPDSKGLSNPAEVEALREKVYASLEAYCKHKYPEQPGRFAKLLLRLPALRSIGLKCLEHLFFFKLIGDTPIDTFLMEMLEAPHQMT
notes: range 28-C-terminus
As to B2, the binding result in test [2] is recorded as “binds”.

B3: RARγm1 (receptor, UniProt P13631 1-352, looked up)
chain: MATNKERLFAAGALGPGSGYPGAGFPFAFPGALRGSPPFEMLSPSFRGLGQPDLPKEMASLSVETQSTSSEEMVPSSPSPPPPPRVYKPCFVCNDKSSGYHYGVSSCEGCKGFFRRSIQKNMVYTCHRDKNCIINKVTRNRCQYCRLQKCFEVGMSKEAVRNDRNKKKKEVKEEGSPDSYELSPQLEELITKVSKAHQETFPSLCQLGKYTTNSSADHRVQLDLGLWDKFSELATKCIIKIVEFAKRLPGFTGLSIADQITLLKAACLDILMLRICTRYTPEQDTMTFSDGLTLNRTQMHNAGFGPLTDLVFAFAGQLLPLEMDDTETGLLSAICLICGDRMDLEEPEKVDK
notes: In vitro translated deletion mutant; also called RARγml
For the molecule B3, the binding result in test [1] is recorded as “no binding”.

B4: RXRαm6 (receptor, human, UniProt P19793 1-462, looked up)
chain: MDTKHFLPLDFSTQVNSSLTSPTGRGSMGMKREAVQEERQRGKDRNENEVESTSSANEDMPVERILEAELAVEPKTETYVEANMGLNPSSPNDPVTNICQAADKQLFTLVEWAKRIPHFSELPLDDQVILLRAGWNELLIASFSHRSIAVKDGILLATGLHVHRNSAHSAGVGAIFDRVLTELVSKMRDMQMDKTELGCLRAIVLFNPDSKGLSNPAEVEALREKVYASLEAYCKHKYPEQPGRFAKLLLRLPALRSIGLKCLEHLFFFKLIGDTPIDTFLMEMLEAPHQMT
notes: as for B1
For B4, the binding result in test [3] is “no binding”.

B5: RXRαm4 (receptor, human, UniProt P19793 61-462, looked up)
chain: MGPPFSVISSPMGPHSMSVPTTPTLGFSTGSPQLSSPMNPVSSSEDIKPPLGLNGVLKVPAHPSGNMASFTKHICAICGDRSSGKHYGVYSCEGCKGFFKRTVRKDLTYTCRDNKDCLIDKRQRNRCQYCRYQKCLAMGMKREAVQEERQRGKDRNENEVESTSSANEDMPVERILEAELAVEPKTETYVEANMGLNPSSPNDPVTNICQAADKQLFTLVEWAKRIPHFSELPLDDQVILLRAGWNELLIASFSHRSIAVKDGILLATGLHVHRNSAHSAGVGAIFDRVLTELVSKMRDMQMDKTELGCLRAIVLFNPDSKGLSNPAEVEALREKVYASLEAYCKHKYPEQPGRFAKLLLRLPALRSIGLKCLEHLFFFKLIGDTPIDTFLMEMLEAPHQMT
notes: range 61-462; 35S-labelled in the column experiment; also called mutant RXRαm4
B5: the binding result in test [2] is on record as “binds”.

B6: TRαm3 (receptor, UniProt P63059-2 1-167, looked up)
chain: MEQKPSKVECGSDPEENSARSPDGKRKRKNGQCPLKSSMSGYIPSYLDKDEQCVVCGDKATGYHYRCITCEGCKGFFRRTIQKNLHPTYSCKYDSCCVIDKITRNQCQLCRFKKCIAVGMAMDLVLDDSKRVAKRKLIEQNRERRRKEEMIRSLQQRPEPTPEEWDL
notes: as for B1
On to B6, for which the binding result in test [1] was “no binding”.

B7: RXRαm5 (receptor, human, UniProt P19793 198-462, looked up)
chain: MGMKREAVQEERQRGKDRNENEVESTSSANEDMPVERILEAELAVEPKTETYVEANMGLNPSSPNDPVTNICQAADKQLFTLVEWAKRIPHFSELPLDDQVILLRAGWNELLIASFSHRSIAVKDGILLATGLHVHRNSAHSAGVGAIFDRVLTELVSKMRDMQMDKTELGCLRAIVLFNPDSKGLSNPAEVEALREKVYASLEAYCKHKYPEQPGRFAKLLLRLPALRSIGLKCLEHLFFFKLIGDTPIDTFLMEMLEAPHQMT
Turning to B7, the binding result in test [3] is “no binding”.

B8: RXRαm1 (receptor, human, UniProt P19793 1-402, looked up)
chain: MDTKHFLPLDFSTQVNSSLTSPTGRGSMAAPSLHPSLGPGIGSPGQLHSPISTLSSPINGMGPPFSVISSPMGPHSMSVPTTPTLGFSTGSPQLSSPMNPVSSSEDIKPPLGLNGVLKVPAHPSGNMASFTKHICAICGDRSSGKHYGVYSCEGCKGFFKRTVRKDLTYTCRDNKDCLIDKRQRNRCQYCRYQKCLAMGMKREAVQEERQRGKDRNENEVESTSSANEDMPVERILEAELAVEPKTETYVEANMGLNPSSPNDPVTNICQAADKQLFTLVEWAKRIPHFSELPLDDQVILLRAGWNELLIASFSHRSIAVKDGILLATGLHVHRNSAHSAGVGAIFDRVLTELVSKMRDMQMDKTELGCLRAIVLFNPDSKGLSNPAEVEALREKVYASLEA
notes: range: lacks the carboxyterminal 60 amino acids; In vitro translated deletion mutant
For B8, the binding result in test [4], in test [5], in test [2] and in test [3] was “no binding” each time.
